From patent US20190359653A1 (Genentech, published 2019) come the findings set out here.

Square brackets hold non-standard residues; d marks the D form. Ends that are not written are not given here. * marks the point of attachment. Octanoyl = CCCCCCCC(=O)* A value given as a limit tells only on which side of the number the result lay.

For one assay, the target named is T1, hFZD8 CRD-Fc (human, UniProt Q9H461 28-158, limits assumed).
T1 construct: domain: CRD; bought (R&D Systems); not shown: Fc part
T1 sequence (looked up): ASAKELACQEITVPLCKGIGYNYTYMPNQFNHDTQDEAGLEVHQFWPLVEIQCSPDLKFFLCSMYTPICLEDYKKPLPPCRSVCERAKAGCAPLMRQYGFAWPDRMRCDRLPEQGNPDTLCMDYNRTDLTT
Put plainly: spot phage ELISA.

The next assay has as its target hFZD7 CRD-Fc (human, UniProt O75084 33-185). Put plainly: spot phage ELISA.
Assay [1] addresses T2, FZD7 receptor of HEK293-TB cells (human, UniProt O75084 33-574). Put plainly: cell-based or functional assay.
Assay [2] has as its target T2, FZD7 receptor of HEK293-TB cells. Put plainly: cell-based or functional assay. This is another data set of the same source.
For assay [3] the target is unchanged. Put plainly: cell-based or functional assay. This is another data set of the same source.
Assay [4] shares this target. Put plainly: cell-based or functional assay. The source holds these as a separate data set.

HLSDVCCSDWCDLVFW (not fully specified; cysteine pairing not given here, cyclic peptide library) [SEQ ID NO 34]: the “signal:noise ratio” value with hFZD8 CRD-Fc was determined as 1.09; in the assay with hFZD7 CRD-Fc, 16.1.
The like results for HLSDVFCSDWCDLVFW (not fully specified; cysteine pairing not given here, cyclic peptide library) [SEQ ID NO 38] were, in that order, 1.28 and 17.5.
Turning to Ac-LPSDDLEFWSHVMY-NH2 [Fz7-21S], the “Reduction in fold potency vs. dimer” value in assay [1] was more than 9000 fold.
Consider TSDFSWCLSWCDLIFW (not fully specified; cysteine pairing not given here, cyclic peptide library) [SEQ ID NO 35], for which the “signal:noise ratio” value with hFZD8 CRD-Fc came to 1.27; in the assay with hFZD7 CRD-Fc it was 28.4.
Ac-LPSDDLEFWCHVMY-NH2 [Fz7-21]: in assay [1], the “IC50 (nM), TOPbrite reporter assay in HEK293-TB cells stimulated with mWnt3a (50 ng/mL)” value (from here on “IC50 (nM), TOPbrite reporter assay”) came to 465 nM and the “Reduction in fold potency vs. dimer” value was 42 fold. In assay [2], the “IC50, Wnt1-stimulated β-catenin signaling, HEK293-TB cells transfected with 5 ng plasmid (FIG. 2C)” value amounted to 1090 nM; the “IC50, Wnt1-stimulated β-catenin signaling, HEK293-TB cells transfected with 25 ng plasmid (FIG. 2C)” value worked out at 2660 nM; the “IC50, Wnt3a-stimulated β-catenin signaling, HEK293-TB cells transfected with 5 ng pCDNA3.2-Wnt3a (FIG. 2B)” value turned out to be 330 nM; the “IC50, Wnt3a-stimulated β-catenin signaling, HEK293-TB cells transfected with 25 ng pCDNA3.2-Wnt3a (FIG. 2B)” value is 419 nM. Further, the “IC50, Wnt3a-stimulated β-catenin signaling, HEK293-TB cells, recombinant mWnt3a 50 ng/mL (FIG. 2A)” value in assay [2] is 93.7 nM. Also, in assay [3], the “IC50 (µM), Wnt3a-mediated β-catenin signaling, TOPbrite reporter in HEK293-TB cells (50 ng/mL mWnt3a)” value came out at 0.1 µM.
Regarding Ac-LPSDDLEFW[dC]HVMY-NH2 [Fz7-21C], in assay [2], the “fold reduction of the potency of Wnt1 inhibition against Fz7-21 (FIG. 2D)” value is 16 fold and the “fold reduction of the potency of Wnt3a inhibition against Fz7-21 (FIG. 2D)” value turned out to be 31 fold.
Regarding SSDFSGCLSWCDLIFG (not fully specified; cysteine pairing not given here, cyclic peptide library) [SEQ ID NO 32], the figures for the “signal:noise ratio” value with hFZD8 CRD-Fc and in the assay with hFZD7 CRD-Fc were 1.39 and 28.4, respectively.
Ac-SDDK(Octanoyl)EFWCHVMY-NH2 (also: dimer via disulfide bond at Cys8) [dFz7-21Δ2.L6KC (8)]: the “Best Fit IC50 (nM), Wnt3a-mediated β-catenin signaling in HEK293-TB cells (50 ng/mL mWnt3a)” value (“Best Fit IC50 (nM)” for short) in assay [4] amounted to 1170 nM.
As to Ac-LPSDNLEFWCHVMY-NH2 [Fz7-21N], the “IC50 (µM), Wnt3a-mediated β-catenin signaling, TOPbrite reporter in HEK293-TB cells (50 ng/mL mWnt3a)” value in assay [3] amounted to 0.41 µM.
Take Ac-SDDLEFWCHVMY-NH2 (also: homodimer via Cys8 disulfide) [dFz7-21Δ2 (Q519)]: in assay [1], the “IC50 (nM), TOPbrite reporter assay” value stood at 8.8 nM and the “Reduction in fold potency vs. dimer” value was found to be 1 fold. In addition, the “Best Fit IC50 (nM)” value in assay [4] stood at 4.3 nM.
As to FDFCSVMPHFIYCPGD (not fully specified; cysteine pairing not given here, cyclic peptide library) [SEQ ID NO 37], the “signal:noise ratio” value turned out to be 1.12 with hFZD8 CRD-Fc and 27.5 with hFZD7 CRD-Fc.
With FDFCTVMPHFIYCPGD (not fully specified; cysteine pairing not given here, cyclic peptide library) [SEQ ID NO 36], the “signal:noise ratio” value in the assay with hFZD8 CRD-Fc amounted to 2.01; with hFZD7 CRD-Fc, 27.4.

B1: SEQ ID NO 33 (peptide)
peptide: FDFCSVMPQFIYCPGD
modifications: not fully specified; cysteine pairing not given here
notes: cyclic peptide library; also called Fz7-20
For B1, the “signal:noise ratio” value with hFZD8 CRD-Fc was 2.1; in the assay with hFZD7 CRD-Fc it was 26.
For the molecule Ac-LPSDDLEFWCHVMY-NH2 (also: homodimer via Cys10-Cys10 disulfide) [dFz7-21], in assay [1], the “IC50 (nM), TOPbrite reporter assay” value is 11.1 nM and the “Reduction in fold potency vs. dimer” value is 1 fold. In addition, the “Best Fit IC50 (nM)” value in assay [4] worked out at 14.1 nM.
